From patent publication US20120041175A1 (ROCKEFELLER UNIVERISTY, published 2012) come the findings set out here.

Sequences and labels used below:
B1: Beclin 1-EGFP (fusion of mouse Beclin 1 and EGFP at the C-terminus) (other)
chain: MEGSKASSSTMQVSFVCQRCSQPLKLDTSFKILDRVTIQELTAPLLTTAQAKPGETQEEEANSGEEPFIETRQDGVSRRFIPPARMMSTESANSFTLIGEASDGGTMENLSRRLKVTGDLFDIMSGQTDVDHPLCEECTDTLLDQLDTQLNVTENECQNYKRCLEILEQMNEDDSEQLQRELKELALEEERLIQELEDVEKNRKVVAENLEKVQAEAERLDQEEAQYQREYSEFKRQQLELDDELKSVENQVRYAQIQLDKLKKTNVFNATFHIWHSGQFGTINNFRLGRLPSVPVEWNEINAAWGQTVLLLHALANKMGLKFQRYRLVPYGNHSYLESLTDKSKELPLYCSGGLRFFWDNKFDHAMVAFLDCVQQFKEEVEKGETRFCLPYRMDVEKGKIEDTGGSGGSYSIKTQFNSEEQWTKALKFMLTNLKWGLAWVSSQFYNK
notes: Expressed from a BAC transgene in beclin 1-/-; also called Beclin 1-GFP; not shown: EGFP inserted at the C-terminus in place of the stop codon

Assay [1] concerns the target nPIST (endogenous, mouse tissue) (mouse, UniProt Q8BH60 2-463). Briefly: anti-GFP affinity isolation of Beclin 1-EGFP from mouse tissues, mass spectrometry. As for the experimental part: (§1) Rubicon contains an N-terminal RUN (for RPIP8, UNC-14 and NESCA) domain, a C-terminal cysteine-rich domain, and a CCD domain in the central of the protein sequence. (D and E) HEK 293T cells were transfected with either N-terminal FLAG-tagged […] or C-terminal EGFP-tagged (E) ATG14L or Rubicon. Immunoprecipitation was performed with anti-FLAG (D) or anti-GFP antibody (E). The endogenous Beclin 1 co-immunoprecipitated were detected by Western blot analysis using anti-Beclin 1 antibody. WCL represents whole cell lysate, and IP represents immunoprecipitated.
(§2) Affinity purification of Beclin 1 interacting proteins and mass spectrometric identification of these proteins were carried out as described in Wang et al. (2006), with slight modification. In brief, tissue extracts were obtained from both beclin 1^{+/-} and beclin 1^{-/-}; beclin 1-GFP/+ mice at 4 month of age by homogenizing 2 brains or 1 liver with a motor-driven homogenizer (speed 2.5, 12 strokes) in 4 ml buffer containing 0.32 M sucrose, 1 mM NaHCO₃, 20 mM HEPEs/pH 7.4, 1 mM MgCl₂, 0.25 mM CaCl₂, EDTA-free protease inhibitor cocktail, 200 μg/mL PMSF, pepstatin 4 μg/mL, and DNase I. The tissue extracts were centrifuged at 1,400 g for 10 minutes and the pellets were homogenized again in 4 ml buffer for 8 strokes and centrifuged again. Supernatants from the two homogenization steps were pooled, centrifuged at 750 g for 10 minutes. […]

Assay [2] concerns the target B1. The description is as above. As to the method: as §1, §2

B1: in assay [1], the binding result is recorded as “no binding”.

B2: Bif1 (endogenous, mouse tissue) (other, UniProt Q9JK48 1-365, looked up)
chain: MNIMDFNVKKLAADAGTFLSRAVQFTEEKLGQAEKTELDAHLENLLSKAECTKIWTEKIMKQTEVLLQPNPNARIEEFVYEKLDRKAPSRINNPELLGQYMIDAGTEFGPGTAYGNALIKCGETQKRIGTADRELIQTSALNFLTPLRNFIEGDYKTIAKERKLLQNKRLDLDAAKTRLKKAKAAETKSSSEQELRITQSEFDRQAEITRLLLEGISSTHAHHLRCLNDFVEAQMTYYAQCYQYMLDLQKQLGSFPSNYLSNNNQTSGTPVPYALSNAIGPSAQASTGSLVITCPSNLNDLKESSNNRKARVLYDYDAANSTELSLLADEVITVFSVVGMDSDWLMGERGNQKGKVPITYLELLN
As to B2, the binding result in assay [2] is “no binding”.
